This is an account of results in patent publication US20240239875A1 (CURIA IP, published 2024).

To fix the notation:
B1: 7-N20-A (antibody, V domains shown)
VH: QVQLVETGGGLVRPGNSLKLSCVTSGFTFSNYRMHWLRQPPGKRLEWIGIITDKSDNYGANYAESVKGRFAISRDDSKSSVYLEMKRLREEDTATYFCSRDGYDWYFDLWGTGTTVTVSS
VL: DIVMTQSHKFMSTSVGDRVRITCKASQDVGIVVAWYQQKPGQSPKLLIYWASTRHTGVPDRFTGSGSGTDFTLTISNVQSEDLADYFCQQYSSYPTFGGGTKLEIK
B2: 6-O12-A (antibody, V domains shown)
VH: QVQLQQPGTELVKPGASVKLSCKASGYTFTSYWMHWVKQRPGQGLEWIGNINPSNGGTNYNEKFRSKATLTVDKSSSTAYMQLSSLTSEDSAVYYCARLGWFLPLGSWGQGTTLTVSS
VL: QIVLTQSPAIMSASLGEVITLTCSASSSVSYMHWYQQKSGTSPKLLIYSTSNLASGVPSRFSGSGSGTFYSLTISSVEAEDAADYYCHQWSGYMYTFGGGTKLEIK
B3: 2-G20-A (antibody, V domains shown)
VH: EVQLQQSGPELVKPGASVKMSCKASGYTFPSYVLHWVKQKPGQGLEWIGYIYPYNDGTNYNEKFKGKATLTSDKSSSTAYMELSSLTSEDSAVYYCARGDYGDSAWFPYWGQGTLVTVSA
VL: DIVLTQSPASLAVSLGQRATISCRASKSVSTSGYSYMHWYQQKPGQPPKLLIYLASNLKSGVPARFSGGGSGTDFTLNIHPVEEEDAATYYCQLSRELPWTFGGGTKLEIK
B4: 9-F6-A (antibody, V domains shown)
VH: EVQLQQSGPELVKPGASVKMSCKASGYTFTSYIMHWVKQKPGQGLEWIGYILPYNDGTKYNEKFKGKATLTSDKSSSTAYMELRSLTSEDSAVYYCARWGYSNFLDSWGQGTTLTVSS
VL: DIQMTQTTSSLSASLGDRVTISCRASQDINNYLNWYQQKPDGTVKLLIYYTSRLHSGVPSRFSGSGSGTDYSLTIRNLEQEDIATYFCQQGNTLPPTFGGGTKLEIK
B5: 1-L10-A (antibody, V domains shown)
VH: EVKLEESGGGLVQPGGSMKLSCVASGFTFNNYWMNWVRQSPEKGLEWVAQMRLKSDNYATHYAESVKGRFTISRDDSKSSVYLQMNNLRAEDTGIYYCIEGYWTYWGQGTLVTVSA
VL: QIVLTQSPAIMSASLGERVTMTCTASSSVSSSYLHWYQQKPGSSPKLWIYSTSNLASGVPARFSGNGSGTSYSLTISSMEAEDAATYYCLQYHRSPPYTFGGGTKLEIK
B6: 7-D7-A (antibody, V domains shown)
VH: QVQLKESGPGLVAPSQSLSITCTVSGFSLTSYAISWVRQPPGKGLEWLGVIWPGGGTNYNSALKSRLSISKDNSKSQVFLKMNSLQTDDTAKYYCARTGYYFDYWGQGTTLTVSS
VL: QLILTQSPAIMSASPGEKVTMTCSASLSVNYMYWFQQKPGTSPKRWIHDTSKLASGVPARFSGSGSGTSYSLTISSMEAEDAATYYCQQWSSNPPMYTFGGGTKLEIK
B7: 8-A17-A (antibody, V domains shown)
VH: QVQLKESGPGLVAPSQSLSITCTVSGFSLTSYAISWVRQPPGKGLEWLGVVWPGGGTNYNSALKSRLSINKDNSKSQVFLKMNSLQTDDTGRYYCARTGYHFDYWGQGTTLTVSS
VL: QIVLTQSPAIMSASPGEKVTMTCSVSSSVSYMHWYQQKSGTSPKRWIYDTSKLASGVPARFSGSGSGTSYSLTISSMEAEDAATYYCQQWSSNPPMYTFGGGTKLEIK

The target of one assay is T1, SARS-CoV-2 S2 domain (SARS-CoV-2, UniProt P0DTC2 686-1213). Kind of assay: ELISA (FIG. 10 summary). In general terms: In an ELISA, binding on a coated surface is turned into a signal by an enzyme label.
With B1, the binding result is reported as “no binding”.

The target of another assay is T1, SARS-CoV-2 S2 domain. Kind of assay: ELISA (FIG. 2C grouping).
Take B2: the binding result is recorded as “no binding”.
Same read-out and setting: then B3, with “no binding”; and B4, with “no binding”; and B5, with “no binding”.
Consider B6, for which the binding result is given as “no binding”.
As for B7, the binding result is given as “no binding”.
